Results published in publication PMC10741561.
pKd: −log10 of the molar value.

Experiments:
[1] = target: m4 + m5 (ternary SNARE complex with His-SNAP23 and GST-VAMP2); assay: in vitro SNARE complex assembly assay (SDS-PAGE, anti-Sx4 immunoblot, ImageJ quantification); settings: 5 µM Sx4-GST variant with equimolar GST-VAMP2 and His-SNAP23, 4 °C, 20 min; parent: est. 1.0; read off a plot
[2] = target: WT-Sx4-GST (C-terminally GST-tagged Syntaxin 4 cytosolic domain) (UniProt P70452); assay: ITC; MicroCal VP-ITC; syntaxins (WT-Sx4 298 µM, Phos-Sx4 308.25 µM) titrated with SNAP23 (64 µM); nonlinear least squares fit
[3] = target: Phos-Sx4-GST (C-terminally GST-tagged Sx4 cytosolic domain harbouring two mutations Y115E and Y251E) (UniProt P70452); assay: as above

In the case of “WT-Sx4-GST (C-terminally GST-tagged Syntaxin 4 cytosolic domain) (from UniProt P70452) L173A; E174A”, the ratio to parent [1] was 1.5.

“His-SNAP23 (N-terminally His-tagged SNAP23) (from UniProt O09044 1-210) (natural protein)” showed a pKd [2] of 5.25 and a pKd [3] of 5.91.
